# T1: human TROP2 (Trophoblast cell-surface antigen 2) (human, UniProt P09758 27-323)
# T1 construct: whole, on cells; also called TACSTD2; h-TROP2
# T1 sequence (looked up): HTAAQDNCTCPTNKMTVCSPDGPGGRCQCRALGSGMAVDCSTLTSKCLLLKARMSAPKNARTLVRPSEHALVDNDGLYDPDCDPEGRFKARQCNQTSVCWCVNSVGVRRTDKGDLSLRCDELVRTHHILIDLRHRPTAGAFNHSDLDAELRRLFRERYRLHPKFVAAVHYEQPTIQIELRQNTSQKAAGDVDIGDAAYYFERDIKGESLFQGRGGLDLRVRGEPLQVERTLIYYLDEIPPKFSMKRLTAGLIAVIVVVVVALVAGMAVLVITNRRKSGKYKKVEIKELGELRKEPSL
# T2: human TROP2 (Trophoblast cell-surface antigen 2) (human, UniProt P09758 27-323)
# T2 chain: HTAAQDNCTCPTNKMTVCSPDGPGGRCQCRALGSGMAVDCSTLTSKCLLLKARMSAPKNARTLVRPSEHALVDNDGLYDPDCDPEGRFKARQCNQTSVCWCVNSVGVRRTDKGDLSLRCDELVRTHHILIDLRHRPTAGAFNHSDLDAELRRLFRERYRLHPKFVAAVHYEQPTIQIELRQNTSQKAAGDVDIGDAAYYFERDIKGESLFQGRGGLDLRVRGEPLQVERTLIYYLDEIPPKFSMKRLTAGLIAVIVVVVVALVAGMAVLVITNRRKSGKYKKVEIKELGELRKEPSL
# Experiments:
# [1] = biological target: human TROP2 (Trophoblast cell-surface antigen 2) (human) (UniProt P09758); assay: flow cytometry whole cell binding, Colo205 cells (endogenous TROP2)
# [2] = biological target: human TROP2 (Trophoblast cell-surface antigen 2) (human) (UniProt P09758); assay: flow cytometry, SKOV3 cells
# [3] = biological target: human TROP2 (Trophoblast cell-surface antigen 2) (human) (UniProt P09758); assay: flow cytometry whole cell binding, NCI-H441 cells
# [4] = biological target: human TROP2 (Trophoblast cell-surface antigen 2) (human) (UniProt P09758); assay: flow cytometry, AU-565 cells, Immu-132 at 100 nM
# [5] = biological target: human TROP2 (Trophoblast cell-surface antigen 2) (human) (UniProt P09758); assay: flow cytometry whole cell binding, HCC202 cells
# [6] = biological target: human TROP2 (Trophoblast cell-surface antigen 2) (human) (UniProt P09758); assay: flow cytometry whole cell binding, CHO-h-TROP2 stable cells
# [7] = biological target: human TROP2 (Trophoblast cell-surface antigen 2) (human) (UniProt P09758); assay: flow cytometry whole cell binding, SKBR3 cells
# [8] = biological target: human TROP2 (Trophoblast cell-surface antigen 2) (human) (UniProt P09758); assay: cell-based or functional assay
# [9] = biological target: human TROP2 (Trophoblast cell-surface antigen 2) (human) (UniProt P09758); assay: flow cytometry whole cell binding, NCI-H1975 cells (endogenous TROP2)
# [10] = biological target: human TROP2 (Trophoblast cell-surface antigen 2) (human) (UniProt P09758); assay: flow cytometry, HCC202 cells, antibody at 100 nM
# [11] = biological target: human TROP2 (Trophoblast cell-surface antigen 2) (human) (UniProt P09758); assay: flow cytometry whole cell binding, CHO-h-TROP2 stable cells; remark: listed apart in the source
# [12] = biological target: human TROP2 (Trophoblast cell-surface antigen 2) (human) (UniProt P09758); assay: flow cytometry whole cell binding, h-TROP2 stably transfected CHO cells
# [13] = biological target: human TROP2 (Trophoblast cell-surface antigen 2) (human) (UniProt P09758); assay: flow cytometry, NCI-H441 cells, Immu-132 at 100 nM
# [14] = biological target: human TROP2 (Trophoblast cell-surface antigen 2) (human) (UniProt P09758); assay: flow cytometry, SKBR3 cells, antibody at 100 nM
# [15] = biological target: human TROP2 (Trophoblast cell-surface antigen 2) (human) (UniProt P09758); assay: flow cytometry, OE-19 cells
# [16] = biological target: T1, human TROP2 (Trophoblast cell-surface …); assay: flow cytometry whole cell binding, CHO-h-TROP2 stable cells
# Method: (§1) Binding of bivalent anti-TROP2 VHH-Fc clones to human TROP2 in human TROP2 stably transfected CHO cells (CHO-h-TROP2 stable cells) were determined by flow cytometry whole cell binding (WCB) assays. Briefly, antibodies were incubated at different concentrations with CHO-h-TROP2 stable cells (0.2×10⁶/ml) in 96-well plates (100 μl/well) in FACS buffer for 30 min. After washing, Alexa Fluor 488 conjugated anti-human IgG Fc secondary antibody was added, and incubated for 30 min. After washing, MFI was measured using CytoFlex by gating live cell population with FITC channel. EC50 of binding was calculated using GraphPad Prism7.0.
# The same strategy was carried out for the humanization of Alpaca clone 4C6. Ten humanized VHH-Fc variants were made for 4C6 with minor difference in Framework 2 and Framework 3. Whole cell binding to CHO-h-TROP2 stable cells was performed to compare the binding affinities of these humanized VHH-Fc variants to the parental Alpaca clone 4C6.
# [17] = biological target: T2, human TROP2 (Trophoblast cell-surface …); assay: flow cytometry whole cell binding, SKBR3
# [18] = biological target: T1, human TROP2 (Trophoblast cell-surface …); assay: flow cytometry whole cell binding, h-TROP2 stably transfected CHO cells
# Method: as §1
# [19] = biological target: T1, human TROP2 (Trophoblast cell-surface …); assay: flow cytometry whole cell binding, NCI-H1975 cells (endogenous TROP2)
# [20] = biological target: T1, human TROP2 (Trophoblast cell-surface …); assay: flow cytometry whole cell binding, Colo205 cells (endogenous TROP2)
# [21] = biological target: T1, human TROP2 (Trophoblast cell-surface …); assay: flow cytometry whole cell binding, CHO-h-TROP2 stable cells; remark: listed apart in the source
# Method: as §1
# Humanization of Alpaca clone 1H11 was carried out using the same strategy. Ten humanized VHH-Fc variants were made with minor difference in Framework 2. The binding activity of humanized variants to human TROP2 was examined using whole cell binding assays.
# [22] = biological target: T1, human TROP2 (Trophoblast cell-surface …); assay: as above; remark: listed apart in the source
binder,measurement,setting,value
"Immu-132 (antibody, INN chains, looked up, V domains shown, unconjugated) VH: QVQLQQSGSELKKPGASVKVSCKASGYTFTNYGMNWVKQAPGQGLKWMGWINTYTGEPTYTDDFKGRFAFSLDTSVSTAYLQISSLKADDTAVYFCARGGFGSSYWYFDVWGQGSLVTVSS VL: DIQLTQSPSSLSASVGDRVSITCKASQDVSIAVAWYQQKPGKAPKLLIYSASYRYTGVPDRFSGSGSGTDFTLTISSLQPEDFAVYYCQQHYITPLTFGAGTKVEIKR",EC50,[1],1.15 nM
same,MFI,[2],50000 MFI
same,EC50,[3],1.74 nM
same,MFI,[4],90000 MFI
same,EC50,[5],4.02 nM
same,EC50,[6],1.16 nM
same,EC50,[7],128 nM
same,"IC50, nM, Killing of HCC202 cells by 2nd Ab-MMAE",[8],0.19 nM
same,"IC50, nM, Killing of NCI-H441 cells by 2nd Ab-MMAE",[8],0.13 nM
same,"IC50, nM, Killing of SKBR3 cells by 2nd Ab-MMAE",[8],0.452 nM
same,EC50,[9],3.61 nM
same,MFI,[10],200000 MFI
same,EC50,[11],0.84 nM
same,EC50,[12],2.2 nM
same,MFI,[13],200000 MFI
same,MFI,[14],90000 MFI
same,MFI,[15],30000 MFI
"Immu-132_MMAE (protein, INN chains, looked up, vc-MMAE payload conjugate) VH: QVQLQQSGSELKKPGASVKVSCKASGYTFTNYGMNWVKQAPGQGLKWMGWINTYTGEPTYTDDFKGRFAFSLDTSVSTAYLQISSLKADDTAVYFCARGGFGSSYWYFDVWGQGSLVTVSS VL: DIQLTQSPSSLSASVGDRVSITCKASQDVSIAVAWYQQKPGKAPKLLIYSASYRYTGVPDRFSGSGSGTDFTLTISSLQPEDFAVYYCQQHYITPLTFGAGTKVEIK","IC50 (nM) in ADC mediated killing, NCI-H441 cells, Immu-132 MMAE DAR3.5",[8],0.047 nM
same,"IC50 (nM) in ADC mediated killing, NCI-H441 cells, Immu-132 MMAE DAR4.0",[8],0.04 nM
same,"IC50 (nM) in ADC mediated killing, NCI-H441 cells, Immu-132 MMAE DAR4.4",[8],0.033 nM
same,"IC50, nM, in killing assay, A431 cells",[8],0.611 nM
same,"IC50, nM, in killing assay, AU-565 cells",[8],0.0489 nM
same,"IC50, nM, in killing assay, Colo205 cells",[8],0.45 nM
same,"IC50, nM, in killing assay, N87 cells",[8],0.092 nM
same,"IC50, nM, in killing assay, NCI-H441 cells",[8],0.054 nM
same,"IC50, nM, in killing assay, NCI-H1975 cells",[8],0.25 nM
same,"IC50, nM, in killing assay, OE-19 cells",[8],1.1 nM
same,"IC50, nM, in killing assay, SK-OV3 cells",[8],1.44 nM
same,"IC50, nM, in killing assay, SKBR3 cells",[8],0.0362 nM
same,"IC50, nM, in killing assay, T-47D cells",[8],0.21 nM
"4C6-hv10 (humanized VHH-Fc variant of 4C6) (antibody, V domains shown) VH: EVQLVESGGGLVQPGGSLRLSCAASGHPFAMYAMGWFRQAPGKEREFVAAIAGNGGSTSYADSVKGRFTISRDNSKNTLYLQMNSLRAEDTAVYYCAAAGGTFYSGTTVATRSSHYDYWGQGTQVTVSS",EC50,[16],1.46 nM
"4C6-hv4 (humanized VHH-Fc variant of 4C6) (antibody, V domains shown) VH: EVQLVESGGGLVQPGGSLRLSCAASGHPFAMYAMGWFRQAPGKEREFVSAIAGNGGSTSYADSVKGRFTISRDNSKNTLYLQMNSLRAEDTAVYYCAAAGGTFYSGTTVATRSSHYDYWGQGTQVTVSS",EC50,[16],2.6 nM
"4C6-hv9 (humanized VHH-Fc variant of 4C6) (antibody, V domains shown) VH: EVQLVESGGGLVQPGGSLRLSCAASGHPFAMYAMGWFRQAPGKEREFVSAIAGNGGSTYYADSVKGRFTISRDNSKNTLYLQMNSLRAEDTAVYYCAAAGGTFYSGTTVATRSSHYDYWGQGTQVTVSS",EC50,[16],2.32 nM
"anti-TROP2 VHH-Fc clone Alpaca 4C6 (antibody, human IgG1, V domains shown, domain: hinge region and constant domains (CH2 and CH3); bivalent VHH-Fc, human IgG1 Fc; also called 4C6 Alpaca) VH: QVQVVESGGGLVQAGGSQRLSCAVSGHPFAMYAMGWFRQAPGKEREFVAAIAGNGGSTSYADSVKGRFTISRDYAKNTNYLQMNSLEPEDTAVYYCAAAGGTFYSGTTVATRSSHYDYWGQGTQVTVSS",EC50,[17],1.58 nM
same,EC50,[16],0.97 nM
same,EC50,[18],1.37 nM
"anti-TROP2 VHH-Fc clone Alpaca 1H11 (antibody, human IgG1, V domains shown, domain: hinge region and constant domains (CH2 and CH3); bivalent VHH-Fc, human IgG1 Fc) VH: LVQLVESGGGLVQAGDSLRLSCTASGGTFSRYIIGWFRQAPGKEREFVTTISGSGGSTYYADSVKGRFTISRDNAKNTVFLQMNSLKPEDTAVYYCASTFYSTTYVAQRDARDYAYWGQGTQVTVSS",EC50,[19],2.59 nM
same,EC50,[17],2.14 nM
same,EC50,[20],1.53 nM
same,EC50,[21],1.57 nM
same,EC50,[18],1.84 nM
"1H11-hv6 (humanized VHH-Fc variant of 1H11) (antibody, V domains shown) VH: EVQLVESGGGLVQPGGSLRLSCAASGGTFSRYIIGWFRQAPGKEREFVTTISGSGGSTYYADSVKGRFTISRDNSKNTLYLQMNSLRAEDTAVYYCASTFYSTTYVAQRDARDYAYWGQGTQVTVSS",EC50,[19],2.7 nM
same,EC50,[20],1.22 nM
same,EC50,[21],2.18 nM
"1H11-hv7 (humanized VHH-Fc variant of 1H11) (antibody, V domains shown) VH: EVQLVESGGGLVQPGGSLRLSCAASGGTFSRYIIGWFRQAPGKEREFVSTISGSGGSTYYADSVKGRFTISRDNSKNTLYLQMNSLRAEDTAVYYCASTFYSTTYVAQRDARDYAYWGQGTQVTVSS",EC50,[19],2.42 nM
same,EC50,[20],1.19 nM
same,EC50,[21],2.59 nM
"1H11-hv8 (humanized VHH-Fc variant of 1H11, Example 5) (antibody, V domains shown, hinge not specified) VH: EVQLVESGGGLVQPGGSLRLSCAASGGTFSRYIMGWFRQAPGKEREFVSTISGSGGSTYYADSVKGRFTISRDNSKNTLYLQMNSLRAEDTAVYYCASTFYSTTYVAQRDARDYAYWGQGTQVTVSS",EC50,[19],2.54 nM
same,EC50,[20],1.29 nM
same,EC50,[21],1.97 nM
"1H11-hv9 (humanized VHH-Fc variant of 1H11) (antibody, V domains shown) VH: EVQLVESGGGLVQPGGSLRLSCAASGGTFSRYIMSWFRQAPGKEREFVSTISGSGGSTYYADSVKGRFTISRDNSKNTLYLQMNSLRAEDTAVYYCASTFYSTTYVAQRDARDYAYWGQGTQVTVSS",EC50,[19],3.04 nM
same,EC50,[20],1.29 nM
same,EC50,[21],2.73 nM
"1H11-hv10 (humanized VHH-Fc variant of 1H11, Example 5) (antibody, V domains shown, hinge not specified) VH: EVQLVESGGGLVQPGGSLRLSCAASGGTFSRYIMSWFRQAPGKEREFVSAISGSGGSTYYADSVKGRFTISRDNSKNTLYLQMNSLRAEDTAVYYCASTFYSTTYVAQRDARDYAYWGQGTQVTVSS",EC50,[19],3.12 nM
same,EC50,[20],1.71 nM
same,EC50,[21],2.29 nM
"1H11-hv10_Fc (antibody, V domains shown, monospecific bivalent VHH-Fc with C220S mutation in the hinge region; also called monospecific anti-TROP2 (1H11-hv10)) VH: EVQLVESGGGLVQPGGSLRLSCAASGGTFSRYIMSWFRQAPGKEREFVSAISGSGGSTYYADSVKGRFTISRDNSKNTLYLQMNSLRAEDTAVYYCASTFYSTTYVAQRDARDYAYWGQGTQVTVSS",EC50,[22],2.38 nM

# From patent US20260176373A1 (BRIGHT BIOLOGICS, published 2026)
